Source: patent US20200390859A1 (NGM BIOPHARMACEUTICALS, published 2020)

Target: mouse FGFR4/β-klotho complex co-expressed in rat L6 myoblast cells (mouse, UniProt Q03142 17-799; Q99N32 1-1043)
Test: cell-based or functional assay

Chain of mouse FGFR4/β-klotho complex co-expressed in rat L6 myoblast cells (Q03142 17-799, chain 1 of 2): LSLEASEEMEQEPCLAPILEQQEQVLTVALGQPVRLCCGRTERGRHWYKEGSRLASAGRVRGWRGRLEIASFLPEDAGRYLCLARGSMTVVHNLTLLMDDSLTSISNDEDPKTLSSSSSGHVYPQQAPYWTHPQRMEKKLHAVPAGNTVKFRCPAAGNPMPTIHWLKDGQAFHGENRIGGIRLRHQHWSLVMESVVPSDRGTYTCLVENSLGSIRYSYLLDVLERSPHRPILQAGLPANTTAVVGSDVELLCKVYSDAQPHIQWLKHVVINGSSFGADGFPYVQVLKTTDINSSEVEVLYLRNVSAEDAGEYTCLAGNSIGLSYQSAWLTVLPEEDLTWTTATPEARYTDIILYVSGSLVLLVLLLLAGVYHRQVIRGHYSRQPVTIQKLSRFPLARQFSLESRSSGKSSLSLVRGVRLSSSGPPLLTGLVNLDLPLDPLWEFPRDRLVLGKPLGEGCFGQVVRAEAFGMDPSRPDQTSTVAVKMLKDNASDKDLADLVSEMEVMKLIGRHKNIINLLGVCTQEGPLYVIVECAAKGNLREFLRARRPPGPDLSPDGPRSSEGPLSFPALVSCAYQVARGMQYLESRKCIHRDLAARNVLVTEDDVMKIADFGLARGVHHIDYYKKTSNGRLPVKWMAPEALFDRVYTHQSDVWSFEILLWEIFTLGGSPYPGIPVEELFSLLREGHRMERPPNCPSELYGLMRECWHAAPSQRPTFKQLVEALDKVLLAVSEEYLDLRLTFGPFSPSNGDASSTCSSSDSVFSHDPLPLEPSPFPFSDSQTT
Chain of mouse FGFR4/β-klotho complex co-expressed in rat L6 myoblast cells (Q99N32 whole entry, chain 2 of 2): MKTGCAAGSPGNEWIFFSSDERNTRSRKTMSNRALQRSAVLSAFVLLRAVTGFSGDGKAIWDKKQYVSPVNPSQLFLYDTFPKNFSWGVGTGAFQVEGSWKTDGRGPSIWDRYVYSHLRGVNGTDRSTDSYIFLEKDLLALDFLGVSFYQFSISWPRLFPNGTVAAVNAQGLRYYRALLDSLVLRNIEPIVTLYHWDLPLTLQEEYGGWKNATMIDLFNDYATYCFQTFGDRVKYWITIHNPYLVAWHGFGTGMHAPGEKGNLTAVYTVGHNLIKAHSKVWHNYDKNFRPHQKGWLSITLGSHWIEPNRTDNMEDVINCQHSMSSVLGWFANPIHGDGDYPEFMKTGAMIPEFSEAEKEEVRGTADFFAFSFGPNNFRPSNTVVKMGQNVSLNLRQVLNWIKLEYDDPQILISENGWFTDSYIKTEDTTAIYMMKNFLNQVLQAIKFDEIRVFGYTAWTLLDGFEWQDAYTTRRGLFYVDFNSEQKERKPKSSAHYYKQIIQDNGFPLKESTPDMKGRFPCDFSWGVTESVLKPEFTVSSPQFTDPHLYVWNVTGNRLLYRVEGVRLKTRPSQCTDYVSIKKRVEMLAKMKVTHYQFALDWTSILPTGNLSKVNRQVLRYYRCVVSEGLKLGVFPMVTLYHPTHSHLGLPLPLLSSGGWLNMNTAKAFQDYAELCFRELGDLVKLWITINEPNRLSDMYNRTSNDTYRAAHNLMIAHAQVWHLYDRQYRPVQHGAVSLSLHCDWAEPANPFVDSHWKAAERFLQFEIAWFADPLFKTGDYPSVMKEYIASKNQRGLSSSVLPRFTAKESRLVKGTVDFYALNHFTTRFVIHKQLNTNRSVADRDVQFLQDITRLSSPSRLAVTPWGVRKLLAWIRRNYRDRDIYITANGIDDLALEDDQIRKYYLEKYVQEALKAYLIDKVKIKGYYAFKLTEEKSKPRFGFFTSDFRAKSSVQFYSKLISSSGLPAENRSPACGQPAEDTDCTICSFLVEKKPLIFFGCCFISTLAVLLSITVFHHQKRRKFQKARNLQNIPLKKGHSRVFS

B1: M70 (FGF19 variant) (ligand)
chain: MRDSSPLVHYGWGDPIRLRHLYTSGPHGLSSCFLRIRADGVVDCARGQSAHSLLEIKAVALRTVAIKGVHSVRYLCMGADGKMQGLLQYSEEDCAFEEEIRPDGYNVYRSEKHRLPVSLSSAKQRQLYKNRGFLPLSHFLPMLPMVPEEPEDLRGHLESDMFSSPLETDSMDPFGLVTGLEAVRSPSFEK
  EC50 (pM), ELK1 luciferase reporter in L6 cells transfected with mouse FGFR4 and β-klotho: 38.3 pM
  Emax (fold potentiation), ELK1 luciferase reporter in L6 cells transfected with mouse FGFR4 and β-klotho: 1.85 fold potentiation
